Assay results taken from US9789203B2, “cKIT antibody drug conjugates” (Novartis AG, priority 2013, dated 2017).

T1: mouse cKIT ECD (Mus musculus, UniProt P05532)
T1 construct: 3.125-50 nM of cKIT receptor extracellular domains (ECD) were diluted in a 2-fold series
T1 sequence (P05532 25-527 limits assumed): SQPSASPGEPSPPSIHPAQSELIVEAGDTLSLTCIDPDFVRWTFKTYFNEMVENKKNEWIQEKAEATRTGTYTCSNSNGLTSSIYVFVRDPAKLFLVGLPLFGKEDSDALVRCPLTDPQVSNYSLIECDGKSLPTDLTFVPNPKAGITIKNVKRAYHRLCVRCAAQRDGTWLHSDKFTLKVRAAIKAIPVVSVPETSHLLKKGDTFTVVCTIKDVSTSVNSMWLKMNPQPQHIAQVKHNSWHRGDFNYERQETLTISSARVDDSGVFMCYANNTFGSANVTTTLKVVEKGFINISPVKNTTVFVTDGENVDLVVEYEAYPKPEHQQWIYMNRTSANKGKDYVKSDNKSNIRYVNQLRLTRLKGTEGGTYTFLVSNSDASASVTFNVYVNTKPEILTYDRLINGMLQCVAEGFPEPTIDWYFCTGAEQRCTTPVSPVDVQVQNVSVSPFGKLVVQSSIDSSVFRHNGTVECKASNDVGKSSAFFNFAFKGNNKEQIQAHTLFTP


Experiments:
[1] = system: HAMLX5343 systemic primary AML xenograft; assay: In vivo efficacy, HAMLX5343 systemic primary AML xenograft
Protocol: (§4) Female NSG mice were implanted systemically (via tail vein injection) with 5×10^6 cells in phosphate buffered saline.
(§5) Leukemic burden was measured by flow cytometry. Weekly, blood was collected from all study animals via the tail. […] The stained cells were analyzed on a FACS Canto flow cytometer (BD Biosciences) (FIG. 52A). Body weights were measured twice weekly (FIG. 52B).

[2] = system: HAMLX5343 systemic primary AML xenograft; conditions: mouse, in vivo, ip
Protocol: as §4, §5

GIST cell lines = conditions: Edris et al. 2013; cited from earlier work
Uke-1 cells = assay: ADCC activity in vitro (Calcein release, NK3.3 effector cells); assay type: cell-based, human; conditions: Uke-1 target cells, NK3.3 effector cells 20 to 1, FIG. 17
Protocol: In brief, Uke-1 cells were stained with Calcein acetoxy-methyl ester (Calcein-AM; Sigma-Aldrich catalog #17783-5MG, St. Louis, Mo.), washed twice, pipetted into a 96-well microtiterplate (96 well, U-bottomed, clear plastic; Corning Costar, catalog #650 160, Tewksbury, Mass.) at a concentration of 5000 cells per well and pre-incubated for 10 min with a serial dilution of the above mentioned antibodies and proteins (from 50,000 to 0.003 μg per ml) before adding the effector NK3.3 cells for 1 hour in an effector to target ratio of 20 to 1. In order to calculate the antibody specific lysis of the target cells, a parallel incubation of target cells only without antibody or effector cells served as a baseline and negative control, whereas the positive control or maximal lysis or hundred percent specific lysis was determined by lysis of target cells only with a 1% Triton-X 100 solution. […] Following a co-incubation of target and effector cells, the microtiterplate was centrifuged and an aliquot of the supernatant fluid was transferred to another microtiterplate (96 well, flat-bottomed, black with clear bottom; (Corning Costar, catalog #3904, Tewksbury, Mass.) and the concentration of free Calcein in solution was determined with a fluorescence counter (Victor 3® multilabel counter, Perkin Elmer, Waltham, Mass.).

[3] = system: GIST T1 subcutaneous tumor xenograft; conditions: GIST T1, SCID-beige mice, single i.v. dose 10 mg/kg
Protocol: The anti-tumor activity of anti-cKIT ADCs was evaluated in several tumor xenograft models.

mouse cKIT ECD = biological target: T1, mouse cKIT ECD; assay: SPR (Biacore 2000) affinity measurement; assay type: binding; conditions: 25° C., antibody captured, ECD in solution
Protocol: (§1) Affinity of the antibodies to cKIT species orthologues and also to cKIT was determined using SPR technology using a Biacore® 2000 instrument (GE Healthcare, Pittsburgh, Pa.) and with CM5 sensor chips.
(§2) Briefly, HBS-P (0.01 M HEPES, pH 7.4, 0.15 M NaCl, 0.005% Surfactant P20) supplemented with 2% Odyssey® blocking buffer (Li-Cor Biosciences, Lincoln, Nebr.) was used as the running buffer for all the experiments. The immobilization level and analyte interactions were measured by response unit (RU). Pilot experiments were performed to test and confirm the feasibility of the immobilization of the anti-human Fc antibody (Catalog number BR100839, GE Healthcare, Pittsburgh, Pa.) and the capture of the test antibodies.
(§3) For kinetic measurements, the experiments were performed in which the antibodies were captured to the sensor chip surface via the immobilized anti-human Fc antibody and the ability of the cKIT proteins to bind in free solution was determined Briefly, 25 μg/ml of anti-human Fc antibody at pH 5 was immobilized on a CM5 sensor chip through amine coupling at flow rate of 5 μl/minute on all two flow cells to reach 10,500 RUs. 0.1-1 μg/ml of test antibodies were then injected at 10 μl/min for 1 minute. Captured levels of the antibodies were generally kept below 200 RUs. Subsequently, 3.125-50 nM of cKIT receptor extracellular domains (ECD) were diluted in a 2-fold series and injected at a flow rate of 40 μl/min for 3 min over both reference and test flow cells. Table of tested ECDs is listed below. Dissociation of the binding was followed for 10 min. After each injection cycle, the chip surface was regenerated with 3 M MgCl2 at 10 μl/min for 30 s.

rat cKIT ECD = assay: SPR (Biacore 2000) affinity measurement; assay type: binding; conditions: 25° C., antibody captured, ECD in solution
Chain of rat cKIT ECD (as listed by the source): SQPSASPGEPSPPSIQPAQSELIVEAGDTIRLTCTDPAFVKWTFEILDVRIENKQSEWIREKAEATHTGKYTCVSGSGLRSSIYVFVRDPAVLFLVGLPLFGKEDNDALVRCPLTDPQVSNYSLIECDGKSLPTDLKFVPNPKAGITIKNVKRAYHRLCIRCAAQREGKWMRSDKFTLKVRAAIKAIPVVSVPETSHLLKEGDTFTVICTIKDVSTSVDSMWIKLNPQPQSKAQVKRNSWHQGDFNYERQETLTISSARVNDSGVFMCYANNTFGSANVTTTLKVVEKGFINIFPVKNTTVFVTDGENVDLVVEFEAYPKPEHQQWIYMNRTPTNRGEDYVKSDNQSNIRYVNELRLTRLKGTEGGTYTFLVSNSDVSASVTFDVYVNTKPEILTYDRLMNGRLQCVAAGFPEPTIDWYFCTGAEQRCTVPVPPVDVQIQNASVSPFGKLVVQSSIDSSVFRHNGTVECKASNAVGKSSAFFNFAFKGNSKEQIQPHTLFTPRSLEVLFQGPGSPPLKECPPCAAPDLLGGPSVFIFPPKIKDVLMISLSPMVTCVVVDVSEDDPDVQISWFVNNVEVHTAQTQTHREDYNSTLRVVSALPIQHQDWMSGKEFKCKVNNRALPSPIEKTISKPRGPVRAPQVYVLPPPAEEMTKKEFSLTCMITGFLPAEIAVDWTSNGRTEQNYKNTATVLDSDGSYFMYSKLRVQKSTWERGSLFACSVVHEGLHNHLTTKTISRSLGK
Protocol: as §1, §2, §3

SCF binding to cKIT = SCF binding to cKIT (Homo sapiens, UniProt P10721); assay: Competition assays using ELISA and FACS, SCF binding to cKIT
Chain of SCF binding to cKIT (P10721 26-976): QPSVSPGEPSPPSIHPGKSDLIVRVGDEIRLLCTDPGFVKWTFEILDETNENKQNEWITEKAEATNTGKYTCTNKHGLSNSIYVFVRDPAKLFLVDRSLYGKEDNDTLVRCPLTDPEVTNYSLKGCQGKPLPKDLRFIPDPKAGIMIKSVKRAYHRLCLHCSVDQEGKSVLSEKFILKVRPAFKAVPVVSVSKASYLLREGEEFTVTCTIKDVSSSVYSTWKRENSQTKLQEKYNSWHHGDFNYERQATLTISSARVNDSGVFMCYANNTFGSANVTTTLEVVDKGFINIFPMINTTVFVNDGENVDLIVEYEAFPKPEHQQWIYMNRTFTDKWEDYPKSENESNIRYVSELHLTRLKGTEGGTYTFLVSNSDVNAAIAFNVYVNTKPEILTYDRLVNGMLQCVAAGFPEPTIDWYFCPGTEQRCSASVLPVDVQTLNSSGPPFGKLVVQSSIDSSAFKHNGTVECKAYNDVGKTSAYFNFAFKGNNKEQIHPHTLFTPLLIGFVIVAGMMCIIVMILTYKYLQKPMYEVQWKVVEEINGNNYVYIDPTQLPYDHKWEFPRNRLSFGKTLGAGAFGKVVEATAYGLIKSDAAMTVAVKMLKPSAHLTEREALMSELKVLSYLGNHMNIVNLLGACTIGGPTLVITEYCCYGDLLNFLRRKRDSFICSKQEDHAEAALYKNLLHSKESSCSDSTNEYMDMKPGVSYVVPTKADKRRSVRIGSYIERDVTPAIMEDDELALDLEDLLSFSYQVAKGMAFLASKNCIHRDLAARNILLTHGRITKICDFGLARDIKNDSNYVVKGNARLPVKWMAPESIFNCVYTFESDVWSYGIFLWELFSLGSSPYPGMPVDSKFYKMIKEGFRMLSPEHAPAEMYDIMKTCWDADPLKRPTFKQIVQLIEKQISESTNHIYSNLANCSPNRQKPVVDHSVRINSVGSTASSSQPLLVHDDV

[4] = HAMLX5343, Day 71, 50 mg/kg Daily x 6 days, intraperitoneally

Molecule | Affinity mouse cKIT (mouse cKIT ECD) | Affinity to rat cKIT (rat cKIT ECD) | further results
Nc1ccn([C@@H]2O[C@H](CO)[C@@H](O)[C@@H]2O)c(=O)n1 [ARA-C, cytarabine, reference compound] |  |  | Mean change of body weight (from day 67) [1, 4]: 2.3 ± 2.3 % ± SEM; Mean change of tumor volume [1, 4]: −6.6 ± 2.1 % CD45 positive PBMC's ± SEM; Regression [1, 4]: −52.5%; antitumor activity (leukemic burden) ([1]; HAMLX5343, intraperitoneally daily for 6 days): efficacious in three of the animals; bodyweight loss ([1]; HAMLX5343, intraperitoneally daily for 6 days, three of six animals): > 20%; toxicity [2]: highly toxic
Cc1ccc(NC(=O)c2ccc(CN3CCN(C)CC3)cc2)cc1Nc1nccc(-c2cccnc2)n1 [Imatinib] |  |  | cell proliferation (GIST cell lines): significantly reduce proliferation of GIST cell lines
MabCampath [reference compound] |  |  | ADCC (Uke-1 cells): mediated ADCC killing of the target cells
9P3: hybridoma derived anti-cKIT antibody, VH SEQ ID NO.9, VL SEQ ID NO.18 (antibody, V domains shown) VH: EVRLVESEGGLVQPRSSMKLSCTASGFTFSDYYMAWVRQVPEKGLEWVANINYDGSSTYYLDSLKSRFIISRDNAKNILYLQMSSLKSEDTATYYCARGDYYGTTYWYFDVWGTGTTVTVSS VL: DIQMTQTTSSLSASLGDRVTISCRASQDISNYLNWYQQKPDGTVKLLIYYTSRLQSGVPSRFSGSGSGTDYSLTISNLEQEDIATYFCQQGKKLWSFGGGTKLEIKR | Not reactive | Not reactive | antitumor activity (tumor volume) [3]: Neither the control non-specific IgG1 ADCs nor the unconjugated 9P3 were efficacious; blocking of SCF binding to cKIT (SCF binding to cKIT): partial blocking
NEG026: anti-cKIT antibody of Table 1, VH SEQ ID NO 46, VL SEQ ID NO 55 (antibody, V domains shown) VH: EVQLVESGGGLVQPGGSLRLSCAASGFTFSDYYMAWVRQAPGKGLEWVANINQNTGSTYYVDSVQGRFTISRDNAKNSLYLQMNSLRAEDTAVYYCARGDYYGTTYWYFDVWGQGTTVTVSS VL: EIVMTQSPATLSLSPGERATLSCRASQDISNYLNWYQQKPGQAPRLLIYYTSRLQSGIPARFSGSGSGTDYTLTISSLEPEDFAVYYCQQGKKLWSFGGGTKVEIK | Not reactive | Not reactive | 
NEG087: anti-cKIT antibody of Table 1, VH SEQ ID NO 118, VL SEQ ID NO 127 (antibody, V domains shown) VH: EVQLVESGGGLVQPGGSLRLSCAASGFTFSDYYMAWVRQAPGKGLEWVASINQNTGSTYYLDSVRGRFTISRDNAKNSLYLQMNSLRAEDTAVYYCARGDYYGTTYWYFDVWGQGTTVTVSS VL: DIQMTQSPSSLSASVGDRVTITCRASQSISSYLNWYQQKPGKAPKLLIYYTSRLQSGVPSRFSGSGSGTDFTLTISSLQPEDFATYYCQQGRRLWSFGGGTKVEIK | Not reactive | Not reactive | 
NEG027: anti-cKIT antibody of Table 1, VH SEQ ID NO 64, VL SEQ ID NO 73 (antibody, V domains shown) VH: EVQLVESGGGLVQPGGSLRLSCAASGFTFSDYYMAWVRQAPGKGLEWVASINQNTGSTYYLDSVRGRFTISRDNAKNSLYLQMNSLRAEDTAVYYCARGDYYGTTYWYFDVWGQGTTVTVSS VL: EIVMTQSPATLSLSPGERATLSCRASQDISNYLNWYQQKPGQAPRLLIYYTSRLQSGIPARFSGSGSGTDYTLTISSLEPEDFAVYYCQQGKKLWSFGGGTKVEIK | Not reactive | Not reactive | 
NEG086: anti-cKIT antibody of Table 1, VH SEQ ID NO 100, VL SEQ ID NO 109 (antibody, V domains shown) VH: EVQLVESGGGLVQPGGSLRLSCAASGFTFSDYYMAWVRQAPGKGLEWVANINQIAGSTYYVDSVQGRFTISRDNAKNSLYLQMNSLRAEDTAVYYCARGDYYGTTYWYFDVWGQGTTVTVSS VL: DIQMTQSPSSLSASVGDRVTITCRASQSISSYLNWYQQKPGKAPKLLIYYTSRLQSGVPSRFSGSGSGTDFTLTISSLQPEDFATYYCQQGRRLWSFGGGTKVEIK | Not reactive | Not reactive | 
